From PMC5431093, “A HAND to TBX5 Explains the Link Between Thalidomide and Cardiac Diseases” (Scientific Reports, 2017)
Read-outs that look alike come from different tables or passages of the source. Values belong to the molecule of their own block, whether it stands above or below them.

Assays:
[1] = molecular target: HA-tagged TBX5 (murine Tbx5 isoform A) (mouse) (UniProt P70326); experiment: co-IP; nuclear extracts of separately transfected HEK293 cells mixed (100 ug each), anti-HA on Protein A/G Dynabeads, 2 h, alone or with DMSO; blot with anti-Flag, re-blot with anti-HA
[2] = molecular target: HA-tagged TBX5 (murine Tbx5 isoform A) (mouse) (UniProt P70326); experiment: as above; remark: listed apart in the source
[3] = molecular target: T1, HA-tagged TBX5 (murine Tbx5 isoform A) (mouse, UniProt P70326 1-518); experiment: cell-based or functional assay
T1 sequence (looked up): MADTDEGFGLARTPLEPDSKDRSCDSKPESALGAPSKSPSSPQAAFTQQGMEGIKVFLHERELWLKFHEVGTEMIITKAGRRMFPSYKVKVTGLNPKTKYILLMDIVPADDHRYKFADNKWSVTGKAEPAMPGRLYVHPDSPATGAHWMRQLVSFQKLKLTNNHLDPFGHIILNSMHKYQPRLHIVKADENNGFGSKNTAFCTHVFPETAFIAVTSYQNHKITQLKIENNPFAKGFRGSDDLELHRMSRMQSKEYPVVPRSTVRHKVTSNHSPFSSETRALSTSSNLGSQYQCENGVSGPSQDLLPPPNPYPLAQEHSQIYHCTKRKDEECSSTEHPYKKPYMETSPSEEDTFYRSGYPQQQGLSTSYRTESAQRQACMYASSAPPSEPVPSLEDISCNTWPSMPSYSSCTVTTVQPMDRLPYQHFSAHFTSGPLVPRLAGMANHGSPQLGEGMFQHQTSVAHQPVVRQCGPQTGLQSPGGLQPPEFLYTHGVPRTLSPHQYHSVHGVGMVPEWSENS

percent inhibition of the co-precipitation against wild-type HAND2 [1]: < 90%
percent inhibition of the co-precipitation against wild-type HAND2 [2]: < 80%
Molecule: Flag-tagged HAND2 p.G202V variant (from UniProt Q61039 1-217) (natural protein)

synergistic activation of the rat NPPA promoter coupled to luciferase in HEK293 cells co-transfected with TBX5 and HAND2 [3]: ≤ 22 fold
B1: Flag-tagged HAND2 wild type (natural protein, mouse, UniProt Q61039 1-217, looked up)
chain: MSLVGGFPHHPVVHHEGYPFAAAAAAAAAAAASRCSHEENPYFHGWLIGHPEMSPPDYSMALSYSPEYASGAAGLDHSHYGGVPPGAGPPGLGGPRPVKRRGTANRKERRRTQSINSAFAELRECIPNVPADTKLSKIKTLRLATSYIAYLMDLLAKDDQNGEAEAFKAEIKKTDVKEEKRKKELNEILKSTVSSNDKKTKGRTGWPQHVWALELKQ
